We go through four substances from article PMC8860610.

In assay [1] the target is yeast nucleosome (histone octamer on 147-bp Widom 601 DNA) (Saccharomyces cerevisiae) (UniProt P04911).
The target is the same in assay [2]. This is another data set of the same source.
The target is the same in assay [3]. This is another data set of the same source.
Assay [4] addresses Tof1-Csm3 (full-length, CBP-tagged) (Saccharomyces cerevisiae) (UniProt P53840).

Sequence of yeast nucleosome (histone octamer on 147-bp Widom 601 DNA) (Saccharomyces cerevisiae) (P04911 whole entry, chain 1 of 4, other chains not shown): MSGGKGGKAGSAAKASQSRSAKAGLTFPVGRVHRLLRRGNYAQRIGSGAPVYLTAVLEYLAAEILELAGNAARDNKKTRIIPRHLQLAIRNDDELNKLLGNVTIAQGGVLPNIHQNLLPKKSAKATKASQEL
Sequence of yeast nucleosome (histone octamer on 147-bp Widom 601 DNA) (Saccharomyces cerevisiae) (P02293 whole entry, chain 2 of 4, other chains not shown, further chain): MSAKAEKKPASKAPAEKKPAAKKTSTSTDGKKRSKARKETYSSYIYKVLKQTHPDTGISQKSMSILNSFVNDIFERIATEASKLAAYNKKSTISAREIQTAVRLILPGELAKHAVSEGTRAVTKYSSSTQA
Sequence of Tof1-Csm3 (full-length, CBP-tagged) (Saccharomyces cerevisiae) (P53840 whole entry, chain 1 of 2): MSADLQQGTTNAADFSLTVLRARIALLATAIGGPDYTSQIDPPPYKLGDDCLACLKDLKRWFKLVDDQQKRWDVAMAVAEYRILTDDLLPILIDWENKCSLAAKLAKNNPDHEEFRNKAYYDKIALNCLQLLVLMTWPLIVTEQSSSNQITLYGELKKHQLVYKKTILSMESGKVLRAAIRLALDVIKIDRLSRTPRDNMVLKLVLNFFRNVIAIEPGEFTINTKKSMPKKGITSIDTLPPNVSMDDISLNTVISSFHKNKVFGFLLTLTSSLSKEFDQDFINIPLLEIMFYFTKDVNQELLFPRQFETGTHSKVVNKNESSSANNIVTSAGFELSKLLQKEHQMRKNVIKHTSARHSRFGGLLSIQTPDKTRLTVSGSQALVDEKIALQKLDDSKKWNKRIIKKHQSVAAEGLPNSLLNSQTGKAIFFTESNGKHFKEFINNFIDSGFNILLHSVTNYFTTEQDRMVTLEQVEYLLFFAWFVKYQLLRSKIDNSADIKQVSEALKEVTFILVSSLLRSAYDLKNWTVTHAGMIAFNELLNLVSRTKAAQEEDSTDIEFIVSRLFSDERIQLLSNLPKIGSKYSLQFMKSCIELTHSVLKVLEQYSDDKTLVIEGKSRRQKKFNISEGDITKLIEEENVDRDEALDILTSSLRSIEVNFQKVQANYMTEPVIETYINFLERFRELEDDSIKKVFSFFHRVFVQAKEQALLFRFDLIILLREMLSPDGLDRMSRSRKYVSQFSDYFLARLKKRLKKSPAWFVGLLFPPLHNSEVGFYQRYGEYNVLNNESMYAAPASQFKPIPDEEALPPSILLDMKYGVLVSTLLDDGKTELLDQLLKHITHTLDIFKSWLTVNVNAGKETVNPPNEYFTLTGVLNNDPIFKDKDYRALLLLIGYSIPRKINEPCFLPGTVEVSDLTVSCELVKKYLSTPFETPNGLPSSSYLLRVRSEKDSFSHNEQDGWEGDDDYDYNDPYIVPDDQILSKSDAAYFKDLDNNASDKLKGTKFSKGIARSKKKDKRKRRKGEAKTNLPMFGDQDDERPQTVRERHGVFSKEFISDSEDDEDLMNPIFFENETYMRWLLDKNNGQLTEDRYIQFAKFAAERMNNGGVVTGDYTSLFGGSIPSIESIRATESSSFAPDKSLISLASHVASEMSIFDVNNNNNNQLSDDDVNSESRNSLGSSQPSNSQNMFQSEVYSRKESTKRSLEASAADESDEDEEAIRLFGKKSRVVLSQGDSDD
Sequence of Tof1-Csm3 (full-length, CBP-tagged) (Saccharomyces cerevisiae) (Q04659 whole entry, chain 2 of 2, further chain): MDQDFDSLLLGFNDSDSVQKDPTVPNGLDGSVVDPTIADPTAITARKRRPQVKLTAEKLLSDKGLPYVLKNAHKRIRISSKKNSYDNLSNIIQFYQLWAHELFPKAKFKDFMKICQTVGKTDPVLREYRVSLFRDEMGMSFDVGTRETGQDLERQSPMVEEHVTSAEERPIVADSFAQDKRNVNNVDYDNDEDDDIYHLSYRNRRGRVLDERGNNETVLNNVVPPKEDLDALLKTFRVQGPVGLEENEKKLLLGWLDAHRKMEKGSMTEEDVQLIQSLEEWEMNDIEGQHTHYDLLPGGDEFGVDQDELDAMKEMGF

In assay [1], “full-length (fl) FACT (Spt16-Pob3) (from UniProt P32558 1-1035; Q04636 1-552) (complex)” registered a nucleosome reorganization, loss of FRET (%) of Cy3/Cy5-labelled nucleosomal DNA, FACT together with Nhp6 (yFACT); nucleosome alone 9.23 of 72.1% and a nucleosome reorganization, loss of FRET (%) of Cy3/Cy5-labelled nucleosomal DNA, FACT without Nhp6; nucleosome alone 9.23 of 10.5%. In addition, the reduction of the nucleosome reorganization activity of yFACT (single-molecule FRET) when Tof1-Csm3 is added in assay [2] came out at 53%.

In turn, “S-PΔC (FACT lacking the C-terminus of Pob3) (from UniProt P32558 1-1035; Q04636 1-552) (complex)” came in with a nucleosome reorganization, loss of FRET (%), with Nhp6 in assay [3] of 63%.

Substance “SΔN-P (FACT lacking the N-terminus of Spt16) (from UniProt P32558 1-1035; Q04636 1-552) (complex)” had a nucleosome reorganization, loss of FRET (%), with Nhp6 in assay [3] of 65%. This substance also had a decrease in in vitro chromatin replication (leading-strand length), 50 nM SΔN-P against 50 nM fl FACT, 20 nM fl Tof1-Csm3; restored by 4- and 8-fold excess of SΔN-P in assay [4] of 58%. Turning to “SΔC-P (FACT lacking the C-terminus of Spt16) (from UniProt P32558 1-1035; Q04636 1-552) (complex)”, in assay [3], the nucleosome reorganization, loss of FRET (%), with Nhp6 came to 46.8%.
